Measured values reported in patent US20230265164A1 (MIT, published 2023).

B1: CCR9^QTY-Fc (Fc fusion)
chain: MTPTDFTSPIPNMADDYGSESTSSMEDYVNFNFTDFYCEKNNVRQFASHYQPPQYWQTYTTGAQGNSQTTQTYWYCTRVKTMTDMYQQNQATADQQYQTTQPYWATAAADQWKFQTFMCKTTNSMYKMNYYSCTQQTMCTSTDRYTATAQAMRAHTWREKRQQYSKMTCYTTWTQAAAQCTPETQYSQIKEESGIAICTMVYPSDESTKQKSATQTQKTTQGYYQPYTTMACCYTTTTHTQTQAKKSSKHKAQKTTTTTQTTYTQSQYPYNCTQQTQTTDAYAMFISNCATSTNTDTCYQTTQTTAYYHSCQNPTQYTYTGERFRRDLVKTLKNLGCISQAQWVSFTRREGSLKLSSMLLETTSGALSLTETSQVAPAHHHHHHHHHHTETSQVAPAHHHHHHHHHHGSKLVDPRGPTIKPCPPCKCPAPNLLGGPSVFIFPPKIKDVLMISLSPIVTCVVVDVSEDDPDVQISWFVNNVEVHTAQTQTHREDYNSTLRVVSALPIQHQDWMSGKEFKCKVNNKDLPAPIERTISKPKGSVRAPQVYVLPPPEEEMTKKQVTLTCMVTDFMPEDIYVEWTNNGKTELNYKNTEPVLDSDGSYFMYSKLRVEKKNWVERNSYSCSVVHEGLHNHHTTKSFSRTPGK
modifications: NT647 (RED-NHS) fluorescent dye on lysines/N-terminus in the MST assay; positions not given.
B2: CXCR2^QTY-Fc (Fc fusion)
chain: MEDFNMESDSFEDFWKGEDLSNYSYSSTLPPFLLDAAPCEPESLEINKYYTTTTYAQTYQQSQQGNSQTMQTTQYSRVGRSVTDTYQQNQAQADQQYAQTQPTWAASKVNGWIFGTFLCKTTSQQKETNYYSGTQQQACTSTDRYLAIVHATRTLTQKRYLVKYTCQSTWGQSQQQAQPTQQYRRTVYSSNVSPACYEDMGNNTANWRMQQRTQPQSYGYTQPQQTMQYCYGFTLRTLFKAHMGQKHRAMRTTYATTQTYQQCWQPYNQTQQADTLMRTQVIQETCERRNHIDRAQDATETQGTQHSCQNPQTYAYTGQKFRHGLLKILAIHGLISKDSLPKDSRPSFVGSSSGHTSTTLTETSQVAPAHHHHHHHHHHGSKLVDPRGPTIKPCPPCKCPAPNLLGGPSVFIFPPKIKDVLMISLSPIVTCVVVDVSEDDPDVQISWFVNNVEVHTAQTQTHREDYNSTLRVVSALPIQHQDWMSGKEFKCKVNNKDLPAPIERTISKPKGSVRAPQVYVLPPPEEEMTKKQVTLTCMVTDFMPEDIYVEWTNNGKTELNYKNTEPVLDSDGSYFMYSKLRVEKKNWVERNSYSCSVVHEGLHNHHTTKSFSRTPGK
modifications: NT647 (RED-NHS) fluorescent dye on lysines/N-terminus in the MST assay; positions not given.
notes: also called CXCR29QTY-Fc

Columns and labels:
CCL25 = molecular target: T1, CCL25 (UniProt O15444 24-150, limits assumed); test: MicroScale Thermophoresis; 5 nM NT647-labeled receptor-Fc against a ligand gradient, 25 C
T1 sequence (looked up): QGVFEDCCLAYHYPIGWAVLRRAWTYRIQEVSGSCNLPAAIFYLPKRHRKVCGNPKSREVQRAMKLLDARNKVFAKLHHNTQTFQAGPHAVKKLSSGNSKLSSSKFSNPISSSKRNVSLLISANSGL
Protocol: (§1) MicroScale Thermophoresis (MST) is an optical method detecting changes in thermophoretic movement and TRIC of the protein-attached fluorophore upon ligand binding. Active labelled proteins contribute to the thermophoresis signal upon ligand binding. […] Herein ligand binding experiments were carried out with 5 nM NT647-labeled protein in 1×PBS, 10 mM DTT buffer with different concentration of arginine, against a gradient of respective ligands on a Monolith NT.115 pico instrument at 25° C. Synthesized receptors were labeled with Monolith NT™ 2nd generation protein labeling kit RED-NHS (NanoTemper Technologies) so as to obtain unique fluorescent signals. MST time traces were recorded and analyzed to obtain the highest possible signal-to-noise levels and amplitudes, >5 Fnorm units. The recorded fluorescence was plotted against the concentration of ligand, and curve fitting was performed using the Kd fit formula derived from the law of mass action. For clarity, binding graphs of each independent experiment were normalized to the fraction bound (0=unbound, 1=bound). MST experiments were performed in the Center for Macromolecular Interactions at Harvard Medical School.

IL8 = molecular target: T2, IL8 (UniProt P10145 28-99, limits assumed); test: as above
T2 sequence (looked up): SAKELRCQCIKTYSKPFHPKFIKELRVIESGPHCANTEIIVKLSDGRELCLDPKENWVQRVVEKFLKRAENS
Protocol: as §1

Binder	Kd (CCL25) [nM]	Kd (IL8) [nM]
B1	37.2	–
B2	–	60.3
